The values below come from patent publication US20220267469A1 (LIPUM, published 2022).

Assay [1] addresses T1, Human BSSL (bile salt-stimulated lipase), native (human, UniProt P19835 21-753).
T1 construct: Native full-length protein purified from human milk (Astra Hässle AB); also called hBSSL; non-biotinylated human BSSL
T1 sequence: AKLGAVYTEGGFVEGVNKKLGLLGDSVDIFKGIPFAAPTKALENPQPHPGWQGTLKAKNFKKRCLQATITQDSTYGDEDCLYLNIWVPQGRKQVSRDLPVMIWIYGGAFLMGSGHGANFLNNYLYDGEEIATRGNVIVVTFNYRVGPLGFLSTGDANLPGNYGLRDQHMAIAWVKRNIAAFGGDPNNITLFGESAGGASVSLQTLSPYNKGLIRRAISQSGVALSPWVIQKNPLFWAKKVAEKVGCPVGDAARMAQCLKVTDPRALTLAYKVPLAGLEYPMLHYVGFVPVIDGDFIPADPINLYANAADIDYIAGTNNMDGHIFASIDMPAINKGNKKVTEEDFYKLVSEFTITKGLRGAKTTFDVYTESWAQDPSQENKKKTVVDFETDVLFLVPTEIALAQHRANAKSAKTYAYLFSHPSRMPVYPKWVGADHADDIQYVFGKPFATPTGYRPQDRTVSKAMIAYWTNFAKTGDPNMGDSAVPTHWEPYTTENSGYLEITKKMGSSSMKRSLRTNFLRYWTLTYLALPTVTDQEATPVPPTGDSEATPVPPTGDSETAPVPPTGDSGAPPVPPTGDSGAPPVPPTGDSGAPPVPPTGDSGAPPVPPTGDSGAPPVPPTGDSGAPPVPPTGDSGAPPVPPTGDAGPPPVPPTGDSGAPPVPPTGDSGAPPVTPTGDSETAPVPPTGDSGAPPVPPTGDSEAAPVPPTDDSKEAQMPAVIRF
The assay is described as follows: ELISA, hBSSL directly coated at 1 µg/ml, detection HRP anti-FLAG M2, A450.

Assay [2] has as its target T1, Human BSSL (bile salt-stimulated …). The assay is described as follows: SPR single cycle kinetics, scFv captured by anti-FLAG M2.
The target of assay [3] is T2, Mouse BSSL, recombinant (mouse, UniProt Q64285 21-599).
T2 construct: Bought (R&D Systems, Cat. no 5658-CE); also called mBSSL; murine BSSL
T2 sequence: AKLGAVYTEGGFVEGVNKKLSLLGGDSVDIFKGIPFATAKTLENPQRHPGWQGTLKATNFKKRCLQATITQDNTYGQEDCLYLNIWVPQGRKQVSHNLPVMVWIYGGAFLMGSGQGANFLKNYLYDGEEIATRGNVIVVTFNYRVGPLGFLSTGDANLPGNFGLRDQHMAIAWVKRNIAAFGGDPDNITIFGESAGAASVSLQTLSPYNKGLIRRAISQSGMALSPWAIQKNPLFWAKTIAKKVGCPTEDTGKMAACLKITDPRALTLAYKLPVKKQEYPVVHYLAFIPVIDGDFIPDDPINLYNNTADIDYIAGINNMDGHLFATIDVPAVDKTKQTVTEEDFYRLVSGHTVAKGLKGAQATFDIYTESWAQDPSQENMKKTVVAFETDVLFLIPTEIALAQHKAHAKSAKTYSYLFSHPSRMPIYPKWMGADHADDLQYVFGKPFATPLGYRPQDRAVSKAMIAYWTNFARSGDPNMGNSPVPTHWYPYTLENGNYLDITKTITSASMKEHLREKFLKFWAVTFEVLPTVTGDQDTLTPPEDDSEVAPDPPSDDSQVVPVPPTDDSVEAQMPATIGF
The assay is described as follows: HTRF competition.

Assay [4] concerns the target T1, Human BSSL (bile salt-stimulated …). The assay is described as follows: SPR kinetic screen, single concentration (estimated).
The target of assay [5] is T3, Biotinylated human BSSL (human, UniProt P19835 21-753, Biotinylated on glycosacarides, 30-40 biotin/BSSL).
T3 construct: hBSSL biotinylated in house; also called b-hBSSL; human BSSL-biotin
T3 sequence: T1 sequence
The assay is described as follows: flow cytometry displacement assay; 3.0 ug antibody, 1 ug b-hBSSL. A digest of the protocol:
(§1)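 Antibody (0.5–3.0 μg per reaction) preincubated with 1 μg biotinylated human BSSL in PBS pH 7.4, 30 min at 4 °C, then with human buffy coat 30 min at 4 °C. After erythrocyte lysis/fixation, bound BSSL on CD14+ monocytes detected by labelled streptavidin via flow cytometry.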

Assay [6] concerns the target T3, Biotinylated human BSSL. The assay is described as follows: flow cytometry displacement assay; 0.5 ug antibody, 1 ug b-hBSSL. The procedure, abridged: as §1
Assay [7] has as its target T2, Mouse BSSL, recombinant. The assay is described as follows: SPR steady state analysis, antibody immobilised, second set of experiments. The procedure:
(§2) SPR measurements were performed with a BIACORE® T200 instrument (GE Healthcare). In order to minimize avidity effects, the antibody was immobilized on the sensor surface and BSSL was injected as the analyte. Immobilization of AS20 mlgG1 was performed by amine coupling to a BIACORE® CM5 (carboxylated dextran surface) sensor chip. The chips were activated by injection of a 1:1 mixture of 0.2 M N-ethyl-N′-[(dimethylamino)peopyl]carbodiimide (EDC) and 0.05 M N-hydroxysucciminimde (NHS) with a contact time of 7 minutes. The antibody was injected for 0.2-2.8 minutes diluted to 14-50 μg/ml in 10 mM acetate-HCl pH 5.0 (set one) or pH 6.0 (set two) to reach final immobilization levels of between 560 and 830 RU. Remaining activated carboxyl groups on the sensor surface were deactivated with an injection of 1 M ethanolamine for 7 minutes.
(§3) In the second set of experiments the running buffer was 25 mM TrisHCl, pH 7.5, 150 mM NaCl. 146 mM H₃PO₄ was used as the standard regeneration solution. The kinetic studies and the non-linear regression analysis were made according to the Single Cycle Kinetics (SCK) method of the BIACORE® T200 instrument and evaluation software. The interaction between mBSSL and AS20 mlgG1 was analyzed with steady state affinity model.

The target in assay [8] is T1, Human BSSL (bile salt-stimulated …). The assay is described as follows: SPR single cycle kinetics, antibody immobilised, second set of experiments. The method, then: as §2, §3
For assay [9] the target is unchanged. The assay is described as follows: SPR single cycle kinetics, antibody immobilised, first set of experiments. The procedure: as §2, §3
For assay [10], the target named is T3, Biotinylated human BSSL. The assay is described as follows: flow cytometry displacement assay; 2.0 ug antibody, 1 ug b-hBSSL. A digest of the protocol: as §1
Assay [11] has as its target T2, Mouse BSSL, recombinant. The assay is described as follows: SPR steady state analysis. The procedure: as §2, §3
Assay [12] addresses T3, Biotinylated human BSSL. The assay is described as follows: flow cytometry displacement assay; 1.5 ug antibody, 1 ug b-hBSSL. The procedure, abridged:
as §1

Assay [13] deals with T3, Biotinylated human BSSL. The assay is described as follows: flow cytometry displacement assay; 1.0 ug antibody, 1 ug b-hBSSL. A digest of the protocol:
as §1

Assay [14] has as its target T1, Human BSSL (bile salt-stimulated …). The assay is described as follows: SPR single cycle kinetics, antibody immobilised. The procedure: (§4) Single cycle kinetics was used to measure the affinity of the antibodies. AS20 hIgG1 LALA-PG and anti-NP hIgG1 LALA-PG were immobilized on a CM5 S sensor chip by primary amine coupling using NHS-EDC chemistry. Five different concentrations of antigen (1:3 dilutions starting from 50 nM for hBSSL and 1:2 dilutions starting from 800 nM for mBSSL) were injected over the surface. The sensor chip surface was regenerated with 10 mM glycine-HCl pH 2.1. Obtained single cycle kinetic data was fitted to a Langmuir 1:1 binding model and kinetic parameters were retrieved using the software BlAevaluation. For mBSSL, a steady state analysis was also performed by plotting the response level at equilibrium against each concentration, and KD values were retrieved by the BlAevalution software.
A single cycle kinetic SPR approach was used to determine the affinity of the IgG.

Assay [15] addresses T2, Mouse BSSL, recombinant. The assay is described as follows: SPR steady state, antibody immobilised. The procedure: as §4

B1: AS20 scFv (scFv, V domains shown)
VH: QVQLQQPGAELVKPGASVKMSCKASGYTFTSYNMHWVKQTPGQGLEWIGVIYPGNGDTSYNQKFKGKATLTADKSSSTAYMQLSSLTSEDSAVYYCARDYYGSSPLGYWGQGTTLTVSS
VL: QIVLTQSPAVMSASPGEKVTMTCSASSSISYMHWYQQKPGTSPKRWIYDTSKLASGVPARFSGSGSGTSYSLTISSMEAEDAATYYCHQRSSYPTFGGGTKLEIK
Take B1: the “EC50 (read off the curve)” value in [1] was approximately 0.02 µg/mL. Moreover, in assay [2], the dissociation constant Kd turned out to be 0.6 nM, the koff came out at 0.00012 s⁻¹ and the kon amounted to 190000 M⁻¹ s⁻¹. Besides, the “fold lower affinity than for human BSSL” value in [3] was approximately 100 fold. In [4], the dissociation constant Kd is 2 nM.

B2: AS20 mouse IgG1 (antibody, V domains shown)
VH: B1 VH
VL: B1 VL
notes: also called AS20 mlgG1; AS20 mIgG1
For B2, the “percentage reduction of b-hBSSL binding to CD14+ monocytes” value in [5] stood at 80%; in assay [6], 31%; in assay [10], 74%; in assay [12] it was 72%; in assay [13], 66%. Also, the Kd was 155 nM in [7], 1.1 nM in assay [8] and 2.8 nM in [9]. Besides, the off-rate constant (koff) in [8] worked out at 0.00025 s⁻¹; in [9], 0.00027 s⁻¹. For the same molecule, the values for the association rate constant (kon) in [8] and in [9] were 230000 M⁻¹ s⁻¹ and 97000 M⁻¹ s⁻¹, respectively. Moreover, the “fold weaker affinity than for human BSSL” value in assay [11] was approximately 100 fold.

B3: AS20 hIgG1 LALA-PG (antibody)
heavy: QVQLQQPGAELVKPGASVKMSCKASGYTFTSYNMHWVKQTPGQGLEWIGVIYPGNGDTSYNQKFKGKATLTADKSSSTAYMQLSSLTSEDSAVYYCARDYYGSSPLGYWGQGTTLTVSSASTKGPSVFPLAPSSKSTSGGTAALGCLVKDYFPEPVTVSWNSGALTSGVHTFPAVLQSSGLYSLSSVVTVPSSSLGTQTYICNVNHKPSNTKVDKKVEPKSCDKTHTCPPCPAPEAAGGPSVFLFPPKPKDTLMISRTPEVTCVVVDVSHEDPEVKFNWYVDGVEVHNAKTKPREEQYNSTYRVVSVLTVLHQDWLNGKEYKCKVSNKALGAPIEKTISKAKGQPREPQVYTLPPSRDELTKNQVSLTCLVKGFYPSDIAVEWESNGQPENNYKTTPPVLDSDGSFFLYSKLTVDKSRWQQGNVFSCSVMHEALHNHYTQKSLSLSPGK
light: QIVLTQSPAVMSASPGEKVTMTCSASSSISYMHWYQQKPGTSPKRWIYDTSKLASGVPARFSGSGSGTSYSLTISSMEAEDAATYYCHQRSSYPTFGGGTKLEIKRTVAAPSVFIFPPSDEQLKSGTASVVCLLNNFYPREAKVQWKVDNALQSGNSQESVTEQDSKDSTYSLSSTLTLSKADYEKHKVYACEVTHQGLSSPVTKSFNRGEC
notes: also called AS20 IgG1 LALA-PG
Turning to B3, the Kd is 0.91 nM in assay [14] and 361 nM in assay [15].
